How the values were obtained:
[1] = biological target: rsH14WIv1 monomeric HA1 head; test: BLI, Fab and monomeric HA head
[2] = biological target: rsH14WIv2 monomeric HA1 head; test: BLI, Fab and monomeric HA head
[3] = biological target: H1 A/Solomon Islands/3/2006 hemagglutinin, monomeric HA1 head (Influenza A virus H1N1 A/Solomon Islands/3/2006) (UniProt B4URD6); test: BLI, Fab on Ni-NTA sensor, monomeric HA head in solution
[4] = biological target: H14N6 A/mallard/Wisconsin/10OS3941/2010 hemagglutinin, monomeric HA1 head (Influenza A virus H14N6 A/mallard/Wisconsin/10OS3941/2010); test: as above
[5] = biological target: H4N6 A/America black duck/New Brunswick/00464/2010 hemagglutinin, monomeric HA1 head (Influenza A virus H4N6 A/America black duck/New Brunswick/00464/2010); test: as above
[6] = biological target: rsH14WIv1 monomeric HA1 head; test: as above
[7] = biological target: rsH14WIv2 monomeric HA1 head; test: as above
[8] = biological target: rsH4NBv1 monomeric HA1 head; test: as above
[9] = biological target: rsH4NBv3 monomeric HA1 head; test: as above

| Substance | fold KD greater than wildtype H1 SI-06 [1] | fold tighter binding than wildtype H1 SI-06 [2] | Kd [3] | Kd [4] | Kd [5] | Kd [6] | Kd [7] | Kd [8] | Kd [9] |
| --- | --- | --- | --- | --- | --- | --- | --- | --- | --- |
| C05 Fab | 1.3 fold | > 10 fold | 1100 nM | > 100 µM | > 100 µM | 1.4 µM | 65 nM | > 100 µM | 340 nM |
| CH67 Fab | 17 fold | – | 570 nM | > 100 µM | > 100 µM | 9.5 µM | 310 nM | > 100 µM | 1600 nM |

Source: patent US20200231630A1
